Source: article PMC2853112

What was measured:
MjNep1 [1] = biological target: T1, MjNep1 (Methanocaldococcus jannaschii, UniProt Q57977 1-205); assay: fluorescence quenching
MjNep1 [2] = biological target: T1, MjNep1; assay: NMR 15N-HSQC titration

T1 sequence (Q57977 whole entry): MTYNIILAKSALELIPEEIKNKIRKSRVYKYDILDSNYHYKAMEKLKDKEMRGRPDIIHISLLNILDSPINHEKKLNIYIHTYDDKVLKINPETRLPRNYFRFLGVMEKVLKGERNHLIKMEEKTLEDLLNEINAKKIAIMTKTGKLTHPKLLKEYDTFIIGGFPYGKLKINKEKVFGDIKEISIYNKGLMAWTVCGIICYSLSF

Row | Binder | Kd (MjNep1 [1]) | Kd (MjNep1 [2])
1 | UUGGAUUCAACGCCGG (ssRNA) [RNA 7 (complete hairpin loop 35)] | 3 ± 1 nM | –
2 | UUCAACGCC (ssRNA) [RNA 5] | 8 ± 5 nM | –
3 | UUCAAC (ssRNA) [RNA 1] | – | > 1000 nM
4 | UUCAACGC (ssRNA) [RNA 4] | 77 ± 27 nM | –
5 | GAUUCAACGCC (ssRNA, pseudouridine at position 4 (nt 914)) [RNA 8] | 11 ± 4 nM | –
6 | UCAACGCC (ssRNA, pseudouridine at position 1 (nt 914)) [RNA 12] | 7 ± 2 nM | –
7 | GAUUCAACGCC (ssRNA, pseudouridine at position 3 (nt 913)) [RNA 9] | 2 ± 1 nM | –
8 | GGAUUCAAC (ssRNA) [RNA 3] | 1650 ± 380 nM | –
9 | GGAUUCAACGCC (ssRNA) [RNA 6] | 7 ± 2 nM | –
